{"source": "paper PMC6650080", "about": "“A novel Ca2+-binding protein that can rapidly transduce auxin responses during root growth” (PLoS Biology, 2019)", "key": {"GST-ICR1": {"target": "T1, GST-ICR1 (Arabidopsis, UniProt Q8LE98 1-344)", "T1 construct": "ICR1, Arabidopsis; also called glutathione S-transferase (GST)-ICR1; source: E. coli Rosetta (DE3), purified (Glutathione sepharose)", "T1 sequence (looked up)": "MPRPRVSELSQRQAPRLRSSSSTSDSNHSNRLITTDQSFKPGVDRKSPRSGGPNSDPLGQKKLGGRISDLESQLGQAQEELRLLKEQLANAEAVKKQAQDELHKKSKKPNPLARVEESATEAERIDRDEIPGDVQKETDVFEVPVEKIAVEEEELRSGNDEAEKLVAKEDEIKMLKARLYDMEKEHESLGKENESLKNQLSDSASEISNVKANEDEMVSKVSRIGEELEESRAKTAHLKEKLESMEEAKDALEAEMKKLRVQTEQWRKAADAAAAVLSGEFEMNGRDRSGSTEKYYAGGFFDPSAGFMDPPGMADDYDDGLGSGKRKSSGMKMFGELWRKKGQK", "assay": "pull-down; GST-ICR1 (1.2 μg) or GST (0.4 μg) on Glutathione sepharose, His6-CMI1 0.5 μg; 20 mM Tris-HCl pH 7.5, 5 mM CaCl2, 0.1 mg/mL BSA, 200 mM NaCl, 1% Triton X-100, RT; wash with 1 M NaCl; blot with anti-poly-His", "conditions": "both partners purified"}, "His6-ICR1": {"target": "T2, His6-ICR1 (Arabidopsis, UniProt Q8LE98 1-344)", "T2 construct": "ICR1, Arabidopsis; also called His-ICR1; source: E. coli Rosetta (DE3), purified (Ni-NTA)", "T2 sequence (looked up)": "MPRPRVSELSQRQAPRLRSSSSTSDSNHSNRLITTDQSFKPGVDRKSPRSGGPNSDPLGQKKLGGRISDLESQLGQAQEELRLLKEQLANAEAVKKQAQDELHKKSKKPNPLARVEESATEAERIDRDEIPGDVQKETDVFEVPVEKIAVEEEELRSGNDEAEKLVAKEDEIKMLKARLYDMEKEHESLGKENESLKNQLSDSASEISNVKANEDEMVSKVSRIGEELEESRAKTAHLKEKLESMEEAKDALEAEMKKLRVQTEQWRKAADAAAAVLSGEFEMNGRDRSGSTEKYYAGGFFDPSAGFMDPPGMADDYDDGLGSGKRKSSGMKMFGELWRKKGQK", "assay": "co-IP; purified His6-CMI1 and His6-ICR1, 1 μg each, 300 μL reaction buffer (20 mM Tris-HCl pH 7.5, 5 mM CaCl2, 0.1 mg/mL BSA, 200 mM NaCl, 1% Triton X-100), RT; anti-CMI1 antibodies and Protein A beads; blot with anti-poly-His", "conditions": "both partners purified"}}, "data": [{"binder": "His6-CMI1 (natural protein, Arabidopsis, UniProt O81831 1-130, looked up, CMI1, Arabidopsis, At4g27280; also called His-CMI1; source: E. coli Rosetta (DE3), purified (Ni-NTA)) MASPKSPTRPTQQNPQPNFHDFLPTMAGNLGGEGLIGELCNGFELLMDREKGVITFESLRRNAAAVLGLGDLTDEDVRCMIKEGDFDCDGALNQMEFCVLMFRLSPDLMEASRCLVTEVIEEEFGFTRRH", "values": [{"measurement": "binding result", "setting": "GST-ICR1", "result": "binds"}, {"measurement": "binding result", "setting": "His6-ICR1", "result": "binds"}]}]}
